Test results as given in US20250346665A1 (BEIJING IMMUNOAH PHARMATECH, published 2025).
Like-named read-outs stand apart in the source and are kept apart here.

Tests used:
[1] = target: T1, Human CLDN18.2, NP_001002026.1, claudin-18 isoform 2 [Homo sapiens] (human); assay: flow cytometry titration on 293T-18.2 cells
Method: (§1) 10 μL of each diluted antibody was added to 100 μL of the above cell samples, mixed and incubated at room temperature for 1 hour.
Each well was washed twice with 400 μl FACS buffer. The secondary antibody of the PE anti-human IgG Fc was added and incubated for 1 hour before detection by flow cytometry.

[2] = target: T1, Human CLDN18.2, NP_001002026.1, …; assay: cell-based or functional assay
[3] = target: T1, Human CLDN18.2, NP_001002026.1, …; assay: flow cytometry on 293T-18.2 cells
[4] = target: T1, Human CLDN18.2, NP_001002026.1, …; assay: flow cytometry titration on 293T-18.2 cells; remark: listed apart in the source
Method: Each well was washed twice with 400 μl FACS buffer. The secondary antibody of PE anti-mouse IgG Fc was added, and incubated for 1 hour before detection by flow cytometry.

[5] = target: T1, Human CLDN18.2, NP_001002026.1, …; assay: flow cytometry titration on 293T-18.2 cells; remark: listed apart in the source
Method: as §1
Each well was washed twice with 400 μl FACS buffer. The secondary antibody of the PE anti-human IgG Fc (Biolegend, Cat409304) was added and incubated for 1 hour before detection by flow cytometry.

T1 sequence (chain, as listed by the source limits assumed): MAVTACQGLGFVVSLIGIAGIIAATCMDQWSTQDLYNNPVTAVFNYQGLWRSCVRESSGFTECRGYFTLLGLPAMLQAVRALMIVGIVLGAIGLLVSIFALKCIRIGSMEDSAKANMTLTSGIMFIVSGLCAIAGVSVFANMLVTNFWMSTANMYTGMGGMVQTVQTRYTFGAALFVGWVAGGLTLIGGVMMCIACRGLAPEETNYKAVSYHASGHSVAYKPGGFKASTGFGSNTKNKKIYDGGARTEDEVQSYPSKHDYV

EC50 [1] | EC50 of ADCC [2] | EC50 strength as a multiple of control antibody MAb362 [3] | EC50 [4] | EC50 [5] | Binder
0.909 µg/mL | 180 nM | ~4 fold |  |  | 7D10-1 humanized antibody (antibody, V domains shown, Cloned into the same pQKX1/pQKX2 vectors as the chimeric antibody and detected with PE anti-human IgG Fc; a human IgG1 isotype control was used in the ADCC assay; also called anti-CLDN18.2 humanized antibody) VH: QVQLVESGGGLVKPGGSLRLSCAASGFSFSSFGMHWVRQAPGKGLEWVAYISSGSRTIYYADTVKGRFTISRDNAKNSLYLQMNSLRAEDTAVYYCTRYYYGNSFDYWGQGTTVTVSS VL: DIQMTQSPSSLSASVGDRVTITCKSSQSLFNTGNQKNYLTWYQQKPGKAPKLLIYWASTRESGVPSRFSGSGSGTDFTLTISSLQPEDFATYYCQNNYNFPLTFGQGTRLEIK
 |  | ~3 fold | 0.385 µg/mL |  | murine anti-CLDN18.2 monoclonal antibody secreted by the hybridoma 7D10-1 (antibody, V domains shown, Murine hybridoma antibody detected with PE anti-mouse IgG Fc; also called murine anti-CLDN18.2 antibody) VH: QVQLKESGGNLVQPGGSRKLSCAASGFSFSSFGMHWVRQAPEKGLEWVAYISSGSRTIYYADTVKGRFTISRDNAKNTLFLQMTSLRSEDTAMYYCTRYYYGNSFDYWGQGTTLTVSS VL: DIVMTQAPSSLTVTTGEKVTLACKSSQSLFNTGNQKNYLTWYQQKPGQPPKLLIYWASTRESGVPDRFTGSGSGTAFTLTISSVQAEDLAVYYCQNNYNFPLTFGAGTKLELK
 |  | ~10 fold |  | 0.4 µg/mL | 7D10-1 chimeric antibody (antibody, human IgG1, kappa, L234A L235A, V domains shown, Murine variable regions with a human constant region; also called anti-CLDN18.2 chimeric antibody) VH: QVQLKESGGNLVQPGGSRKLSCAASGFSFSSFGMHWVRQAPEKGLEWVAYISSGSRTIYYADTVKGRFTISRDNAKNTLFLQMTSLRSEDTAMYYCTRYYYGNSFDYWGQGTTLTVSS VL: DIVMTQAPSSLTVTTGEKVTLACKSSQSLFNTGNQKNYLTWYQQKPGQPPKLLIYWASTRESGVPDRFTGSGSGTAFTLTISSVQAEDLAVYYCQNNYNFPLTFGAGTKLELKR
